Assay results: paper PMC11903878, “Structural mechanisms for centrosomal recruitment and organization of the microtubule nucleator γ-TuRC” (Nature Communications, 2025)

Legend:
[1] = target: X. laevis 2×FLAG-TEV-NEDD1-3C-GCP3(1–240)/ALFA-MZT1 complex (X. laevis) (UniProt O73787); assay: mass photometry; Refeyn TwoMP; purified NEDD1-N-GCP3/MZT1 diluted to a final concentration below 40 nM; tetramer of the fusion/MZT1 protomer
[2] = target: the molecule itself; assay: cryo-EM structure; single particle analysis of the native γ-TuRC affinity-purified from X. laevis egg extract; particles with stoichiometric NEDD1/N-GCP3/MZT1 grapnel; AlphaFold2 models flexibly fitted (MDFF) into the density
[3] = target: T1, human Augmin TII N-clamp with HAUS8∆[1-138] (human, UniProt Q9NVX0 1-118; Q7Z4H7 1-269; Q99871 1-299; Q9BT25 139-248); assay: pull-down; 25 μg recombinant EGFP-tagged Augmin TII N-clamp∆H8N added to lysate of HEK293 cells overexpressing POC5-HA or POC5^mut-HA, captured on GFP binder beads, 1 hr 4 °C; 50 mM Tris pH 7.5, 150 mM NaCl; HA blot; conditions: one partner purified
T1 construct: HAUS2, human, codons 1 to 118; HAUS6, human, codons 1 to 269; HAUS7, human, codons 1 to 299, followed by a TEV-EGFP-8xHis cleavable tag; HAUS8, human, codons 1 to 248 with the N-terminal truncation HAUS8∆[1-138]; The range 139-248 of HAUS8 is worked out from the printed limits 1 to 248 and the deletion 1-138; also called Augmin N-clamp; Augmin TII N-clamp∆H8N; source: E. coli BL21 CodonPlus-RIL, …
T1 sequence (Q9NVX0 1-118, chain 1 of 4): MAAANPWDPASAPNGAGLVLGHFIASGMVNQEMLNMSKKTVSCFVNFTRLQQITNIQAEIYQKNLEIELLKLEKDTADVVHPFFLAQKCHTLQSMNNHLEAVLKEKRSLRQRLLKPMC
T1 sequence (Q7Z4H7 1-269, chain 2 of 4): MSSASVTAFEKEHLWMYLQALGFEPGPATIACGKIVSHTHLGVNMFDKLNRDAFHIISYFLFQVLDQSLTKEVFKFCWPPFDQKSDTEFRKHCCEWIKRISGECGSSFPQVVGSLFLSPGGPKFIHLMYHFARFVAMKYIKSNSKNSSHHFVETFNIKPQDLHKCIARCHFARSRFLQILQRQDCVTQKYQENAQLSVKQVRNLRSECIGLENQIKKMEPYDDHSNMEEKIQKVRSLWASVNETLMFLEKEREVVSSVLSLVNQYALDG
T1 sequence (Q99871 1-299, chain 3 of 4): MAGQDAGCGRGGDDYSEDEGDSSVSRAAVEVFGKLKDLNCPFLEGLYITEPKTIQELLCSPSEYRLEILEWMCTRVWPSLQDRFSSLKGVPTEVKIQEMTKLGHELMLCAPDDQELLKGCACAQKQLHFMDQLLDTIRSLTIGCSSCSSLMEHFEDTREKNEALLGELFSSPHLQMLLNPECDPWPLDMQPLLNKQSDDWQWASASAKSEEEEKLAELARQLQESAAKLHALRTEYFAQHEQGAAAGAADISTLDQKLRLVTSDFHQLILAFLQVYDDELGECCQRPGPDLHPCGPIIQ
T1 sequence (Q9BT25 139-248, chain 4 of 4): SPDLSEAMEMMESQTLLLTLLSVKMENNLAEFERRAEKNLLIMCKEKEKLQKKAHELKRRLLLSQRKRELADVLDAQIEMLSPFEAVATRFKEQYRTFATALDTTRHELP

Molecule: X. laevis 2×FLAG-TEV-NEDD1-3C-GCP3(1–240)/ALFA-MZT1 complex (from UniProt O73787 1-240; Q5U4M5 1-72)
- stoichiometry N [1]: 4

B1: NEDD1 (neural precursor cell expressed, developmentally down-regulated 1), X. laevis, endogenous (natural protein, X. laevis (endogenous in egg extract), UniProt A0A8J0Q0Y8 1-671, looked up)
chain: MESRGGGGRVRLPGTTMQDNIRFVSAGDDVKIWDYSSMTTVEQFNPHSASHPVSSLCWSSNNHFLVTASGSGDKIVVSSCKSKPVPLLELAEGKKQTCVNLNSSSQYVVSGGLDNTVNIWDLKSKRLHRSLKDHKDEVTCVTFNANDCYVASGSMSGEIILHNVTTNLSSTPFGHGSSQPIRHLKYSYVKKSLLGTVSDSGSVTLWDANSQNPYHVFESAHKAPASGICFSPVNDLLLVTVGLDKRIICYDVSSKILLQTVVAESPLTAVDFMPDGATLAVGSSRGKIYLYDLRMLSSPVKTVSAHKTSVQCIQFQHSNIYKSSKGPSSKSSILSTAVNKKPSTKTAAGGTQSANITKDLPPSAISSLPQPVMPVDSKVLRVNDDKSGFPRSTSLDIIPSKETDFAKTSDYKSIDSFGRSSLGDIFSPVRDDASHFRGAEDLSCKGNDLDYLPQFSTIPSSRRNPVGANTQGIHGSPLHLIIESPIKEEDESQDSELKTRKPQLLKQDFRESSSKPASVDQNNLNNSPINSVTRTPEAIEKTGHQILSQLKSDVPAHGTKIASPKVAATMSTQLASSLSEKIADTLASDRTGAPLTAIQINFIKNMIEETLDDFREACHRDIVNLQVEMIKQFHIQSSEIQMLLERYSLNESLVSEIEKLREENKRLRANF
notes: NEDD1, X. laevis, endogenous; NM_001094388.1 is printed for the cDNA of the recombinant constructs; also called NEDD1^C (its C-terminus); source: endogenous, X. laevis egg extract; co-purified with the γ-TuRC
- stoichiometry N [2]: 4

B2: POC5^mut-HA (S224E, R227A, K228A, V231A, S234K, L235A) (natural protein, human, UniProt Q8NA72 1-575, looked up)
chain: MSSDEEKYSLPVVQNDSSRGSSVSSNLQEEYEELLHYAIVTPNIEPCASQSSHPKGELVPDVRISTIHDILHSQGNNSEVRETAIEVGKGCDFHISSHSKTDESSPVLSPRKPSHPVMDFFSSHLLADSSSPATNSSHTDAHEILVSDFLVSDENLQKMENVLDLWSSGLKTNIISELSKWRLNFIDWHRMEMRKEKEKHAAHLKQLCNQINELKELQKTFEIEIGAADEAISKASHAIGKQKEKIELMRTFFHWRIGHVRARQDVYEGKLADQYYQRTLLKKVWKVWRSVVQKQWKDVVERACQARAEEVCIQISNDYEAKVAMLSGALENAKAEIQRMQHEKEHFEDSMKKAFMRGVCALNLEAMTIFQNRNDAGIDSTNNKKEEYGPGVQGKEHSAHLDPSAPPMPLPVTSPLLPSPPAAVGGASATAVPSAASMTSTRAASASSVHVPVSALGAGSAATAASEEMYVPRVVTSAQQKAGRTITARITGRCDFASKNRISSSLAIMGVSPPMSSVVVEKHHPVTVQTIPQATAAKYPRTIHPESSTSASRSLGTRSAHTQSLTSVHSIKVVD
notes: POC5, human, with six point mutations in the predicted POC5-Augmin interface; source: HEK293 (Tet-On 3G), overexpressed, in lysate; not shown: HA, C-terminal, kept
- fold reduction against wild-type [3]: 3 fold
